Article PMC12828377, “HDAC6-mediated PFKL deacetylation enhances aerobic glycolysis and promotes VSMC proliferation” (The Journal of Biological Chemistry, 2025)

Experiments:
Experiment in all cases: cross-linking; VSMC lysate (700 ug protein in NP40 buffer) fixed with 0.1% glutaraldehyde on ice for 10 min, then Western blot; cells with or without PDGF-BB (10 ng/ml, different durations), TSA or NAM, or transduced with Ad-PFKL WT/K563Q/K563R
[1] = biological target: HA-PFKL K563R (UniProt P17858)
[2] = biological target: HA-PFKL WT (UniProt P17858)
[3] = biological target: the molecule itself

Molecule “HA-PFKL K563R (from UniProt P17858 1-780) (enzyme)” has a stoichiometry N [1] of 4.

Molecule “HA-PFKL WT (from UniProt P17858 1-780) (enzyme)” has a stoichiometry N [2] of 4.

B1: phosphofructokinase, liver type (PFKL) (enzyme, rat (endogenous in primary rat VSMCs), UniProt P30835 1-780, looked up)
chain: MATVDLEKLRMSGAGKAIGVLTSGGDAQGMNAAVRAVTRMGIYVGAKVFLIYEGYEGLVEGGENIKPANWLSVSNIIQLGGTIIGSARCKAFTTREGRLAAAYNLLQHGITNLCVIGGDGSLTGANIFRNEWGSLLEELVKEGKISESTAQNYAHLSIAGLVGSIDNDFCGTDMTIGTDSALHRIMEVIDAITTTAQSHQRTFVLEVMGRHCGYLALVSALASGADWLFIPEAPPEDGWENFMCERLGETRSRGSRLNIIIIAEGAIDRHGKPISSSYVKDLVVQRLGFDTRVTVLGHVQRGGTPSAFDRVLSSKMGMEAVMALLEATPDTPACVVSLSGNQSVRLPLMECVQVTKDVQKAMDEKRFDEAIQLRGRSFENNWKIYKLLAHQKVSKEKSNFSLAILNVGAPAAGMNAAVRSAVRTGISEGHTVYVVHDGFEGLAKGQVQEVGWHDVAGWLGRGGSMLGTKRTLPKPHLEAIVENLRTYNIHALLVIGGFEAYEGVLQLVEARGRYEELCIVMCVIPATISNNVPGTDFSLGSDTAVNAAMESCDRIKQSASGTKRRVFIVETMGGYCGYLATVTGIAVGADAAYVFEDPFNIHDLKANVEHMTEKMKTDIQRGLVLRNEKCHEHYTTEFLYNLYSSEGRGVFDCRTNVLGHLQQGGAPTPFDRNYGTKLGVKAMLWMSEKLRDVYRKGRVFANAPDSACVIGLRKKVVAFSSVTELKKETDFEHRMPREQWWLNLRLMLKMLAHYRISMADYVSGELEHVTRRTLSIDKGF
notes: phosphofructokinase, liver type (PFKL), endogenous in primary VSMCs from the thoracic aorta of Sprague-Dawley rats; Acetylation level of the endogenous protein changes with PDGF-BB, TSA or NAM; sites on the endogenous protein were not mapped directly; also called endogenous PFKL; PFK1 liver isoform; source: endogenous, primary rat VSMC lysate (NP-40 buffer) or fixed VSMCs
B1 was tested, and the “stoichiometry N” value [3] was 4.
